These are literature values, as cited in paper PMC3433420.

Targets include TENC1 (Homo sapiens) (UniProt Q63HR2); VAV1 (Homo sapiens) (UniProt P15498); PIK3R3-C (Homo sapiens) (UniProt Q92569); SYK-C (Homo sapiens) (UniProt P43405); GRB7 (Homo sapiens) (UniProt Q14451); PLCG2-NC (Homo sapiens) (UniProt P16885); ABL1 (Homo sapiens) (UniProt P00519); GRB10 (Homo sapiens) (UniProt Q13322); SRC (Homo sapiens) (UniProt P12931); ZAP70-NC (Homo sapiens) (UniProt P43403); SHB (Homo sapiens) (UniProt Q15464).

Conditions in all cases: cited from earlier work
Data set [1] has as its target SYK-NC (Homo sapiens) (UniProt P43405).
Data set [2] addresses PIK3R1-N (Homo sapiens) (UniProt P27986).
The target in data set [3] is ABL2 (Homo sapiens) (UniProt P42684).
The target in data set [4] is PIK3R3-NC (Homo sapiens) (UniProt Q92569).
Data set [5] has as its target RASA1-N (Homo sapiens) (UniProt P20936).
The target of data set [6] is PIK3R1-NC (Homo sapiens) (UniProt P27986).
The target of data set [7] is PIK3R3-N (Homo sapiens) (UniProt Q92569).
In data set [8] the target is PIK3R2-NC (Homo sapiens) (UniProt O00459).
Data set [9] deals with BLK (Homo sapiens) (UniProt P51451).
In data set [10] the target is ABL2 (Homo sapiens) (UniProt P42684). This is another data set of the same source.
Data set [11] shares this target. The source holds these as a separate data set.
For data set [12], the target named is SYK-NC (Homo sapiens) (UniProt P43405). This is another data set of the same source.
Data set [13] has as its target PIK3R1-N (Homo sapiens) (UniProt P27986). This is another data set of the same source.
For data set [14], the target named is BLK (Homo sapiens) (UniProt P51451). The source holds these as a separate data set.
Data set [15] deals with ITK (Homo sapiens) (UniProt Q08881).
The target of data set [16] is ABL2 (Homo sapiens) (UniProt P42684). This is another data set of the same source.
The target of data set [17] is PIK3R3-NC (Homo sapiens) (UniProt Q92569). The source holds these as a separate data set.
The target in data set [18] is RASA1-N (Homo sapiens) (UniProt P20936). This is another data set of the same source.
Data set [19] has as its target GRB2 (Homo sapiens) (UniProt P62993).
The target of data set [20] is PIK3R1-NC (Homo sapiens) (UniProt P27986). The source holds these as a separate data set.
Data set [21] has as its target NCK2 (Homo sapiens) (UniProt O43639).
Data set [22] concerns the target PIK3R3-N (Homo sapiens) (UniProt Q92569). The source holds these as a separate data set.
Data set [23] has as its target PIK3R2-NC (Homo sapiens) (UniProt O00459). The source holds these as a separate data set.
Data set [24] concerns the target VAV2 (Homo sapiens) (UniProt P52735).
Data set [25] has as its target YES1 (Homo sapiens) (UniProt P07947).
For data set [26], the target named is PIK3R2-N (Homo sapiens) (UniProt O00459).
Data set [27] deals with ITK (Homo sapiens) (UniProt Q08881). The source holds these as a separate data set.
The target in data set [28] is ABL2 (Homo sapiens) (UniProt P42684). This is another data set of the same source.
For data set [29] the target is unchanged. The source holds these as a separate data set.
The target of data set [30] is PIK3R3-NC (Homo sapiens) (UniProt Q92569). The source holds these as a separate data set.
The target in data set [31] is RASA1-N (Homo sapiens) (UniProt P20936). This is another data set of the same source.
The target in data set [32] is GRB2 (Homo sapiens) (UniProt P62993). This is another data set of the same source.
Data set [33] shares this target. This is another data set of the same source.
Data set [34] deals with PIK3R1-NC (Homo sapiens) (UniProt P27986). The source holds these as a separate data set.
For data set [35], the target named is NCK2 (Homo sapiens) (UniProt O43639). The source holds these as a separate data set.
In data set [36] the target is PIK3R3-N (Homo sapiens) (UniProt Q92569). The source holds these as a separate data set.
In data set [37] the target is PIK3R2-NC (Homo sapiens) (UniProt O00459). This is another data set of the same source.
Data set [38] has as its target SHC1-PTB (Homo sapiens) (UniProt P29353).
The target is the same in data set [39]. This is another data set of the same source.
In data set [40] the target is VAV2 (Homo sapiens) (UniProt P52735). This is another data set of the same source.
The target of data set [41] is PIK3R2-N (Homo sapiens) (UniProt O00459). The source holds these as a separate data set.
Data set [42] deals with ABL2 (Homo sapiens) (UniProt P42684). This is another data set of the same source.
Data set [43] concerns the target YES1 (Homo sapiens) (UniProt P07947). The source holds these as a separate data set.

Like-named read-outs stand apart in the source and are kept apart here.

Chain of ABL2 (Homo sapiens) (P42684 168-268): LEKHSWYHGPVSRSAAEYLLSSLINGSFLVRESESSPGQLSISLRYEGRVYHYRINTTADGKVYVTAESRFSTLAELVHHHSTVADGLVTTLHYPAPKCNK
Chain of PIK3R2-NC (Homo sapiens) (O00459 325-721): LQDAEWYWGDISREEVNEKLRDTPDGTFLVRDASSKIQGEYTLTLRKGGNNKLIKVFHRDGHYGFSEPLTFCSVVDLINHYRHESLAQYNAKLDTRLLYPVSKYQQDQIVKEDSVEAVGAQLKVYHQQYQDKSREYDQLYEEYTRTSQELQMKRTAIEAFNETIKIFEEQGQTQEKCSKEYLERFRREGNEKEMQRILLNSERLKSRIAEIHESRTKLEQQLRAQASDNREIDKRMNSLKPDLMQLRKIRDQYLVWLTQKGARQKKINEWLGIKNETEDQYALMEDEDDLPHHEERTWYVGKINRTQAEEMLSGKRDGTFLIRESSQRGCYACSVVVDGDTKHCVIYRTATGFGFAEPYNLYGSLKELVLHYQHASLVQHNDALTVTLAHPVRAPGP
Chain of RASA1-N (Homo sapiens) (P20936 176-446): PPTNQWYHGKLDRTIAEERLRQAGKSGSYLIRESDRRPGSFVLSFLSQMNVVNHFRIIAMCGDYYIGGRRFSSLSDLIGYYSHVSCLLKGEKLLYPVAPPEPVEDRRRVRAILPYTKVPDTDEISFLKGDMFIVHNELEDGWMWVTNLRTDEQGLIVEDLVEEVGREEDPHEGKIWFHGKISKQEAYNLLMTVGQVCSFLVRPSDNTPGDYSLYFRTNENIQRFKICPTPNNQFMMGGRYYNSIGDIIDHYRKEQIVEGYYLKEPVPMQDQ
Chain of GRB2 (Homo sapiens) (P62993 55-157): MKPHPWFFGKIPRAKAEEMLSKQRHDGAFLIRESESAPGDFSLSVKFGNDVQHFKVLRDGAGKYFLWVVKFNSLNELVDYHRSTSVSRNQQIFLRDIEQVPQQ
Chain of PIK3R1-NC (Homo sapiens) (P27986 328-723): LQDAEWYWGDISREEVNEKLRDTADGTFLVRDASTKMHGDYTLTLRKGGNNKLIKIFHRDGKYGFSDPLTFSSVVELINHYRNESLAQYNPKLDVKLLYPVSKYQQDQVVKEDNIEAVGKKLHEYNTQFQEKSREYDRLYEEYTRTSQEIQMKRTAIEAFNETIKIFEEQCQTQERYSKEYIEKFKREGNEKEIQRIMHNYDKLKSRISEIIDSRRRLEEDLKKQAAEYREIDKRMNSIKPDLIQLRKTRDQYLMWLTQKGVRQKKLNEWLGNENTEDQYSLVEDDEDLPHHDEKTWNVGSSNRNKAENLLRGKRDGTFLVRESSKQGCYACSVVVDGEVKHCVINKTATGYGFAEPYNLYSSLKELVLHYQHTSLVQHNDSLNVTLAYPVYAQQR
Chain of YES1 (Homo sapiens) (P07947 153-260): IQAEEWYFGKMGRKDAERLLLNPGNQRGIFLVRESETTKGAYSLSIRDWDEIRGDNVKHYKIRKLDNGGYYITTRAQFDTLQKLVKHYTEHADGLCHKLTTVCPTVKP
Chain of SHC1-PTB (Homo sapiens) (P29353 483-583): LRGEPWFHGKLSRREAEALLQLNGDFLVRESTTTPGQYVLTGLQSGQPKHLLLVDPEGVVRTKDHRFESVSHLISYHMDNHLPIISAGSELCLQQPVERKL
Chain of PIK3R2-N (Homo sapiens) (O00459 325-721): as the sequence (O00459 325-721) above
Chain of BLK (Homo sapiens) (P51451 119-225): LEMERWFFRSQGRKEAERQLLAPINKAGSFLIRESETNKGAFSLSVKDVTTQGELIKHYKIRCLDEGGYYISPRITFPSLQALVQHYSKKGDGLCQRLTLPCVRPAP
Chain of VAV2 (Homo sapiens) (P52735 668-772): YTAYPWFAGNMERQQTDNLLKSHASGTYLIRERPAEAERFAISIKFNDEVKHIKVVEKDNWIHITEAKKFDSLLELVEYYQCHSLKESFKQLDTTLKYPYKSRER
Chain of ITK (Homo sapiens) (Q08881 234-343): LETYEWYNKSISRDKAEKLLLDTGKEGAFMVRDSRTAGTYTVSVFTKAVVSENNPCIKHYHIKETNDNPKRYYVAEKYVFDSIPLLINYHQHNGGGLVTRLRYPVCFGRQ
Chain of NCK2 (Homo sapiens) (O43639 280-380): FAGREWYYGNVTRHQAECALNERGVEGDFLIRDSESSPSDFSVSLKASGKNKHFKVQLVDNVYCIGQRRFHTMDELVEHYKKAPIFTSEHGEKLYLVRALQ
Chain of PIK3R1-N (Homo sapiens) (P27986 328-723): as the sequence (P27986 328-723) above
Chain of ABL1 (Homo sapiens) (P00519 122-222): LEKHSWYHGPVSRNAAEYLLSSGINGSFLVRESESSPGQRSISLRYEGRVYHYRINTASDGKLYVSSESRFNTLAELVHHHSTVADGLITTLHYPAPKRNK
Chain of VAV1 (Homo sapiens) (P15498 666-770): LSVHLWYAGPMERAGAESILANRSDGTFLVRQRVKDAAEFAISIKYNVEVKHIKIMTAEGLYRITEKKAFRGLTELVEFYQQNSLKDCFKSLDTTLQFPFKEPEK
Chain of SHB (Homo sapiens) (Q15464 405-509): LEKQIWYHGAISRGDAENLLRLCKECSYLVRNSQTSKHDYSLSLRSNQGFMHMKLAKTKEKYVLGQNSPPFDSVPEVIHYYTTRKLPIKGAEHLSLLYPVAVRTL
Chain of GRB7 (Homo sapiens) (Q14451 426-532): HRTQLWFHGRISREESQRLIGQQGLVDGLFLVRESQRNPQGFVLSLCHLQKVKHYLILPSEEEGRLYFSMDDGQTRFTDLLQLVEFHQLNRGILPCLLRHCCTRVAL
Chain of ZAP70-NC (Homo sapiens) (P43403 5-259): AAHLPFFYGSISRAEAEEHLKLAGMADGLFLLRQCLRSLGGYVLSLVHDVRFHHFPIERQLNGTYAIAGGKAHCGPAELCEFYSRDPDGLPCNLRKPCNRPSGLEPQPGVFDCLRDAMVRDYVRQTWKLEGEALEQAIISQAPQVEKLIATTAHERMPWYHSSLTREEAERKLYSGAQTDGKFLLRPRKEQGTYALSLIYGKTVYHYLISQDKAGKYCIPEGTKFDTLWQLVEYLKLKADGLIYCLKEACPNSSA
Chain of GRB10 (Homo sapiens) (Q13322 488-579): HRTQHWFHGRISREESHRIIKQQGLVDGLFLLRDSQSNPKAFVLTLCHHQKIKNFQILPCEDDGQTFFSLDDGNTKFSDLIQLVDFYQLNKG
Chain of TENC1 (Homo sapiens) (Q63HR2 1135-1252): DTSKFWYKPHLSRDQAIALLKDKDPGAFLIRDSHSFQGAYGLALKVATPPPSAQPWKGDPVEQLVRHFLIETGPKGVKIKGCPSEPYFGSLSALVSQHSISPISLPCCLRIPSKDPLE
Chain of PLCG2-NC (Homo sapiens) (P16885 527-740): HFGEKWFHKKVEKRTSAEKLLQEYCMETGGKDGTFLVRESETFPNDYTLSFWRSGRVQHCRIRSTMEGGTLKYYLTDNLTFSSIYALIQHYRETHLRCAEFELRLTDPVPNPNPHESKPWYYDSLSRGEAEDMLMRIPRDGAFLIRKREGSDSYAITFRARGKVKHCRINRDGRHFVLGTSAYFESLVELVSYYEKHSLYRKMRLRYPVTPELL

On to …pYEYMDVGS, for which the apparent Kd (screen) in the data set with SYK-NC (Homo sapiens) [1] was 851 nM; with PIK3R1-N (Homo sapiens) [2], 1250 nM; with ABL2 (Homo sapiens) [3], 158 nM; with PIK3R3-NC (Homo sapiens) [4], 97 nM; with RASA1-N (Homo sapiens) [5], 671 nM; with TENC1 (Homo sapiens), 903 nM. Also, the apparent Kd (screen) was 2000 nM with VAV1 (Homo sapiens); 375 nM in the data set with PIK3R1-NC (Homo sapiens) [6]; 553 nM with PIK3R3-N (Homo sapiens) [7]; 385 nM in the data set with PIK3R2-NC (Homo sapiens) [8]; 270 nM in the data set with PIK3R3-C (Homo sapiens).

For …pYHAEGGKVd, the apparent Kd (screen) with BLK (Homo sapiens) [9] is 1710 nM; in the data set with ABL2 (Homo sapiens) [10], 1080 nM; with ABL2 (Homo sapiens) [11] it was 2000 nM.

As to …pYINQSVPKd, the apparent Kd (screen) in the data set with SYK-NC (Homo sapiens) [12] was 908 nM; with SYK-C (Homo sapiens), 1920 nM; with GRB7 (Homo sapiens), 1980 nM; with PIK3R1-N (Homo sapiens) [13], 1080 nM; with BLK (Homo sapiens) [14], 300 nM; with ITK (Homo sapiens) [15], 219 nM. For the same substance, the apparent Kd (screen) was 152 nM with ABL2 (Homo sapiens) [16]; 1630 nM with PLCG2-NC (Homo sapiens); 1020 nM in the data set with PIK3R3-NC (Homo sapiens) [17]; 180 nM with RASA1-N (Homo sapiens) [18]; 198 nM in the data set with GRB2 (Homo sapiens) [19]; 670 nM in the data set with PIK3R1-NC (Homo sapiens) [20]. The apparent Kd (screen) was 916 nM in the data set with ABL1 (Homo sapiens); 1100 nM in the data set with NCK2 (Homo sapiens) [21]; 1300 nM with GRB10 (Homo sapiens); 507 nM with PIK3R3-N (Homo sapiens) [22]; 1790 nM with SRC (Homo sapiens); 1410 nM with PIK3R2-NC (Homo sapiens) [23]. Besides, the results for the apparent Kd (screen) with VAV2 (Homo sapiens) [24], with YES1 (Homo sapiens) [25] and with PIK3R2-N (Homo sapiens) [26] were 542 nM, 337 nM and 453 nM, respectively.

Consider …pYLNTVQPTd, for which the apparent Kd (screen) with ITK (Homo sapiens) [27] is 1760 nM; in the data set with ABL2 (Homo sapiens) [28] it was 120 nM; with ABL2 (Homo sapiens) [29], 85 nM; with PIK3R3-NC (Homo sapiens) [30] it was 1690 nM; with RASA1-N (Homo sapiens) [31] it was 388 nM; in the data set with ZAP70-NC (Homo sapiens), 1140 nM. Moreover, the apparent Kd (screen) in the data set with GRB2 (Homo sapiens) [32] was 422 nM; with GRB2 (Homo sapiens) [33], 724 nM; with PIK3R1-NC (Homo sapiens) [34], 1570 nM; with NCK2 (Homo sapiens) [35], 326 nM; with PIK3R3-N (Homo sapiens) [36], 838 nM; with PIK3R2-NC (Homo sapiens) [37] it was 857 nM. Further, the apparent Kd (screen) in the data set with SHC1-PTB (Homo sapiens) [38] is 173 nM; in the data set with SHC1-PTB (Homo sapiens) [39] it was 133 nM; in the data set with VAV2 (Homo sapiens) [40], 373 nM; in the data set with PIK3R2-N (Homo sapiens) [41] it was 763 nM.

For the substance …pYSSDPTGAd, the apparent Kd (screen) was 2000 nM in the data set with ABL2 (Homo sapiens) [42], 295 nM with YES1 (Homo sapiens) [43] and 862 nM with SHB (Homo sapiens).
